Reference: the nanobody polyreactivity screen of Harvey et al. (2022)

Experiment: yeast display, Sf9 membrane polyspecificity reagent, FACS + sequencing; frameworks hold sequencing errors
Method in brief: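 Nanobodies from a synthetic yeast display library (Saccharomyces cerevisiae BJ5465), induced 36–48 hours with galactose, were stained 1 hour at 4 °C with 10% biotinylated, detergent-solubilized Sf9 membrane reagent, enriched on streptavidin microbeads, then FACS-sorted. Anti-HA (expression) and streptavidin (reagent binding) fluorescence set low and high (top ~1%) gates. Polyreactivity labels come from the gate of origin. Genes were colony-PCR amplified, MiSeq 2 × 250 sequenced and filtered by CDR length.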

## QVQLVESGGGLVQAGGSLRLSCAASGSTFGTYAMGWYRQAPGKERELVAAISRRGGSTYYADSVKGRFTISRDNAKNTVYLQMNSLKTEDTAVYYCAARKFHPDDNYWGQGTQVTVSS
  polyreactivity (PSR sort gate): high polyreactivity

## QVQLVESGGGLVQAGGSLRLSCAASGFTFQYYTMGWYRQAPGKERELVAAISGSGGRTYYADSVKGRFTISRDNAKNTVYLQMNSLKPEDTAVYYCAKVYNRVYYGKGDYWGQGTQVTVSS
  polyreactivity (PSR sort gate): high polyreactivity

## QVQLVESGGGLVQAGGSLRLSCAASGLIFGDYAMGWYRPAPGKERELVAAITGSVTRTYYADSVKGRFTISRDNAKNTVYLQMNSLKPEDTAVYYCATRVHYIGFYDYDYWGQGTQVTVSS
  polyreactivity (PSR sort gate): low polyreactivity

## QVQLVESGGGLVQAGGSLRLSCAASGSTLHEYAMGWYRQAPGKARELVAAISRGGGNTNYADSVKGRFTISRDNAKNTVYLQMNSLIPEDTAVYYCNARHGKIIFYLERYDYWGQGTQVTVSS
  polyreactivity (PSR sort gate): low polyreactivity

## QVQLVESGGGLVQAGGSLRLSCAASGLIFNEYAMGWYRQAPGKERELVAAISWSDGGTSYADSVKGRFTISRDNAKNTVYLQMNSLKPEDTAVYYCAKGPRGAHRTHGAYVEMEYWGQGTQVTVSS
  polyreactivity (PSR sort gate): low polyreactivity

## QVQLVESGGGLVQAGGSLRLSCAASGSIFWDNAMGWYRQAPGKERELVAAITSSGDTTYYADSVKGRFTISRDNAKNTVYVQMNSLKPEDTAVYYCAKVFGPTDYLTGTFKGDYWGQGTQVTVSS
  polyreactivity (PSR sort gate): low polyreactivity

## QVQLVESGGGLVQAGGSLRLSCAASGRILGKNAMGWYRQAPRKERELVAAISGRGDRTHYADSVKGRFTISRDNAKNTVYLHMNSLKPEDTAVYYCAKDHHPPAKGQSVSLGYDYWGQGTQVTVSS
  polyreactivity (PSR sort gate): low polyreactivity

## QVQLVESGGGLVQAGGSLRLSCAASGITFILYAMGWYRQAPGKERELVASITSGGSTDYADSVKGRFTISRDNAKTTVYLQMNSLKPEDTAVYYCAADGRTYHHHDGGWYRYDYWGQGTQVTVSS
  polyreactivity (PSR sort gate): low polyreactivity

## QVQLVESGGGLVQAGGSLRLSCAASGTFAGNAIGWYRQAPGKERELVAAINSGGSTNYADSVKGRFTISRDNAKNTVYLQMNSLKPEDTAVYYCAADSVWSPVDYDYWGQGSQVTVSS
  polyreactivity (PSR sort gate): low polyreactivity

## QVQLVESGGGLVQAGGSLRLSCAASGFTFGTYAMGWYRQAPGKERELVARITSGGRTNYADSVKGRFTISRDNAKNTVYLQMNSLKPEDTAVFYCNAVNGYYWGSRFDYWGQGTQVTVSS
  polyreactivity (PSR sort gate): high polyreactivity

## QVQLVESGGGLVQAGGSLRLSCASSGSTFPRYAMGWYRPAPGKETELVAAISSSGRTYYADSVKGRFTISRDNAKNTVFLQMNSLKPEDTAVYYCNAPVARGEASYYWGQGTQVTVSS
  polyreactivity (PSR sort gate): high polyreactivity

## QVQLVESGGGLVQAGGSLRLSCAASGRIFTHNVMGWYRQAPGKERELVAAISGGGGSTYYADSVKGRFTISRDNAKNTVYLQMNSLKPEDTAVYYWAAVGFGRQGQEDYWGQGTHVTVSS
  polyreactivity (PSR sort gate): low polyreactivity

## QVQHVESGGGLVQAGGSLRLSCAASGRTFAGYAMGWYRQAPGKEWELVSGITRGVITNYADSVKGRFTISRDNAKNTVYLQMNSLKPEDTAVYSCNARTFPVRLYTPRYGYWGQGTQVTVSS
  polyreactivity (PSR sort gate): high polyreactivity

## QVQLVESGGGLVQAGGSLRLSCAASGSTFRWYAMGWYRQAPGKERELVAAITAGGRTYYADSVKGRFTISRDNAKNTVYLQMTSLKPEDTAVYYCNALGKPTWYATTYDYWGQGTQVTVSS
  polyreactivity (PSR sort gate): high polyreactivity

## QVQLVESGGGLVQAGGSLRLSCAASGRILFRYGMGWYRQAPGKERELVARISWSGGNTHYADSVKGRFTISRDNAKNTVYLQMNSLKPDDTAVYYCNAYYTYWYPRYDYWGQGTQVTVSS
  polyreactivity (PSR sort gate): low polyreactivity

## QVQLVESGGGLVQAGGTLRLTCAASGTFYGNNMGWYIHAPGKQRELVATIRRSTGSTYYADSVKGRFTISRDNAKNTVYLQMNSLKPEDTAVYYCAAEIYSYYRLYWYDYRGQGTQVTVSS
  polyreactivity (PSR sort gate): high polyreactivity

## QVQLVESGGGLVQAGGSLRLSCAASGNTFGIYAMGWYRPAPGKERELVAAISSGTSTNYADSVKGRFTISRDNAKNTVYLQMNSLKPEDTAVYYCNADDQYQDVREDYWGQGTQVTVSS
  polyreactivity (PSR sort gate): low polyreactivity

## QVQLVESGGGLVQAGGSLRLSCAASGSTFVGYAMGWYRQAPGKERELVADIDSIGGSTYYADSVNGRFTISRDNAKNTVYLQMNSLKPEDTAVYYCAARRFDTALVLYDYWGQGTQVTVSS
  polyreactivity (PSR sort gate): low polyreactivity

## QVQLVESGGGLVQAGGSLRLTWAASGSTYESNAMGWYRPAPGKERELVAAISSSGGSTYYADSVKGRFTITRDNAKNTVYLQMNSLKPEDTAVYYGNKGGLSDYDYWGQGTQVTVSS
  polyreactivity (PSR sort gate): high polyreactivity

## QVQLVESVVGLVQAGGSLLISCAAYGLTFKGYAMVWYRQAPGKERELVAAITWDTGSTYYADSVKGRFSISRDNAKNTVYLQMNSLKPEDTAVYYCAAVGSTTTGVRRRGYWGHGTQVTVSS
  polyreactivity (PSR sort gate): high polyreactivity

## QVQLVESGGGLVQAGGSLRLSCAASGFIFYKNAMGWYRQAAGKERELVASITRTGDSTNYADSVKGRFTISRDNPKNTVYLQLNSLKPEDTAVYYCAKVLRRWPDPAGGMDYWGQGTQVTVSS
  polyreactivity (PSR sort gate): high polyreactivity

## QVQLVESGGGLVQAGGSLRLSCAASGRTFRYNAMGWYRQAPGKERELVAAITQSGGSTYYADSVKGRFTISRDNAKNTVYLQMNSLKPEDTAVYYCAKVRERINYDYWGQGTQVTVSS
  polyreactivity (PSR sort gate): low polyreactivity

## QVQLVESGGGLVQAGGSHRLSCAASGSIFTAYALGWYRQATGKARELVAAIDVSGDSTYYADSVKGRFTISRDNAKKTVYLQMNSLKPEDTAVYYCKAEYRVNKEYDYWGQGTQVTVSS
  polyreactivity (PSR sort gate): low polyreactivity

## QVQLVESGGGLVQEGGSLRLSCAASGSIFLQYAMGWYRQAPGKERELVAGISLRGCSTYYADSVKGRFTISRDNAKNTVYVQLNSLKPEDTAVYYCAADVIVTVETHTSGPSFTEYDYWGQGTQVTVSS
  polyreactivity (PSR sort gate): low polyreactivity

## QVQLVESGGGLVQAGGSLRLSCAASGSIFSVYAMGWYRQAPGKERELVAVIWRGGSTNYADSVKGRFTISRDNAKNTVYLQMNSLKPEVTALYYCNARTFYRKFWYQFVSSYGYDYWGQGTQVTVSS
  polyreactivity (PSR sort gate): low polyreactivity

## QVQLVESGGGLVQAGGSLRLTCAASGIIFRFYGMGWYRQEPGKEREFVAAISGGGGSTYYADSVKGRFTISRDNAKKTVYLQMNSLKPEDTAVYYCARYTYRSAFEYWGQGTQVTVSS
  polyreactivity (PSR sort gate): high polyreactivity

## QVQLVESGGGLVQAGGSLRLSCAASGSIFYYYTMGWYRQAHGKESEFVATMTYSGGSTYYADSVKGRFTISRDNAKNTVYLQMNSLKPEDTAVYYCNARPRYYDWVDYWGQGTQVTVSS
  polyreactivity (PSR sort gate): low polyreactivity

## QVQLVESGGGLVQAGGSLRLSCAASGRIFKTNAMGWYRQAPGKERELVAAISKRGGRTYYADSVKGRFTISRDNAKNTVYLQMNSLKPEDTAVYYCATRYSGYSLGDYWGQGTQVTVSS
  polyreactivity (PSR sort gate): high polyreactivity

## QVQLVESGGGLVQAGGSLRLSCAASGFTFRYNTMGGYRQAPGKERELVAAISSSGSSTYYADSVKGRFTISRDNAKNTVYLQMNSLKPEDTAVYYCNAVHRRTRYGYWGQGTQVTVSS
  polyreactivity (PSR sort gate): high polyreactivity

## QVQLVESGGGLFQAGGSLRLSCAPSGRTFSHYAMGWYRQAPGKERELVAAISWSGGRTYYADSVKGRFTISRYNAKNTVYLQMNSLKPEDTAVYYCATDKVSNRRYDYWGQGTQVTVSS
  polyreactivity (PSR sort gate): high polyreactivity

## QVQLVESGGGLVQAGGSLRLSCAASGYTFNNYAMGWYRQAPGKERELVAAISSSGGSTYYADSVKGRFTISRDNAKNTRYFQMNSLKPEDTAVYYGDGRPFGHGDYRGYYYWGQGTQVTVSS
  polyreactivity (PSR sort gate): low polyreactivity

## QVQLQESGDGLVQAVGSLRLSCAARGYISGYYYMGWYRQAPGKERELVAGIDAFGSSTNYADCVKGRFTISRDNAKNTVYLQMNSLKPEDTAVYYCAARPDGDRLFSYWGQGTQVTVSS
  polyreactivity (PSR sort gate): low polyreactivity

## QVQLVESGGGLVQAGGSLRLSCAASGRTFGVNAMGWYRQAPGKERELVAAITKDSGSTNYADSVKGRFTISRDNAKNTVYLQMNSLKPEDTAVYYCAARVWVRGYYWGQGTQVTVSS
  polyreactivity (PSR sort gate): low polyreactivity

## QVQLVESGGGLVQAGGSLRLSCAASGYTFVRYALGWYRQAPGKEMELVAAMSRSGGSTYYADSVKGRFTISRDNAKNTVYLQMNSLKPEDTAVYYCNAYPYSYYDYDYWGQGTQVTVSS
  polyreactivity (PSR sort gate): high polyreactivity

## QVQLVESGGGLVQAGGSLRLSCAASGSIFYDNAMGWYRQAPGKERELVAAISGNDATTYYADSVKGRFTISRDNAKNTVYLQMNSLKPEDTAVYSCAADYVLNPWRTRYDYWGQGTQVTVSS
  polyreactivity (PSR sort gate): low polyreactivity

## QVQLVESGGGLVQAGGSLRLSCAASGITFLTYTMGWYRQAPGKERELVAAISRSGGRTYYADSVKGRFTISRDNAKNTVYFQMNSLKPEDTAVYYCAAVSANQDFDYWGQGTQVTVSS
  polyreactivity (PSR sort gate): high polyreactivity

## QVQLVESGGGLVQEGGSLRLSCAASGRTLHKNVMGWYRQAPGKERELVAAINTGGRTYYADSVKGRFTISRDNAKHTVYLQMNSLKPEDTAVYYCAKEGHVNPRPTVGGDYWGHGTQVTVSS
  polyreactivity (PSR sort gate): low polyreactivity

## QVQLVESGGGLVQAGGSLRLSCAASGFTLSKYAKGWYRPAPGKERELVAAITGSGVRTYYADSVKGRFTISRDYAKNSVYLELNSLKPEDTAVYYCATGTKKGRYRDELDCWGHGTQVTVSS
  polyreactivity (PSR sort gate): high polyreactivity

## QVQLVESRGGLVQAGGSLRLSCAASGFIFLGNAMGWYRQAPGKERELVASISRGGSTNYADSVKGRFTISRDNAKNTVYLQMNSLKPEDTAVYYCAADLSDKFGYWGQGTQVTVSS
  polyreactivity (PSR sort gate): low polyreactivity

## QVQLVESGGGLVQAGGSLRLSCAASGRTFGRYAMGWYRQAPGKERELVAAISWTGGRTYYADSVKGRFTISRDNAKNTVYLQMNRLKPEDTAVYYCAALYDRNPAASRGYDSWGQGTQVTVSS
  polyreactivity (PSR sort gate): high polyreactivity

## QVHLVESGGGLVQAGGSLRLSCAASGSTFKIYAMGWYRQAPGKERELVAAITRGGSTNYADSVKGRFTISRDNAKNTVYLQMNSLKPEDTAVYYCAASYWYRRYGTYTYDYWGQGTQVTVSS
  polyreactivity (PSR sort gate): high polyreactivity

## QVQLVESGGGLVQAGGSRRISCAASGIIFTLYVMGWYRQAPGTERELVAAIRSGGSTYYADSVKGRVTISRDNAKNTVYLQMNSLKPEDTAVYYCAARVRSGTGVGFDYWGQGTQVTVSS
  polyreactivity (PSR sort gate): high polyreactivity

## QVKLVDSAGGLVQAGVILRLRCAASGSIVRPNAMGWYSQATGKERELVAAITSSGTTNYADSVKVRFTISRDNAKNTVYLQMNSLKPEDTAVYYCAAERKDGGYGYGVWDYYPGENMDYWGQGTQVTVSS
  polyreactivity (PSR sort gate): low polyreactivity
